Data reported in PMC5790001.

biological target: CCR5 (human (endogenous in PM1 cells and MDM)) (UniProt P51681)

Question: For “CCL5 5p12 5 m (total chemical synthesis) (from UniProt P13501 24-91) (ligand)”, which IC50 of HIV-1BaL inhibition, acute infection assay, protein from total chemical synthesis; blocks HIV-1 entry through CCR5 is on record?
Answer: 3.9 pM

Question: “CCL5 6p4 5 m (total chemical synthesis) (from UniProt P13501 24-91) (ligand)” was tested. Which IC50 of HIV-1BaL inhibition, acute infection assay, protein from total chemical synthesis; blocks HIV-1 entry through CCR5 did it give?
Answer: 3.9 pM

biological target: CCR5 (human (endogenous in PM1 cells and MDM)) (UniProt P51681); remark: another data set of the same source

Question: For “CCL5 5p12 5 m (E. coli) (from UniProt P13501 24-91) (ligand)”, which other is on record?
Answer: 6.1 pM

Question: With “wt CCL5 (E. coli) (from UniProt P13501 24-91) (ligand)” as the substance, how does the IC50 (pM) of HIV-1BaL inhibition, acute infection assay in PM1 cells (p24), protein purified from E. coli; blocks HIV-1 entry through CCR5 read?
Answer: 810 pM

Question: How did the other turn out when “5p12-RANTES (E. coli) (from UniProt P13501 24-91) (ligand)” was run?
Answer: 21 pM

Question: How did the other turn out when “CCL5 6p4 5 m (E. coli) (from UniProt P13501 24-91) (ligand)” was run?
Answer: 7.9 pM

Question: “6p4-RANTES (E. coli) (from UniProt P13501 24-91) (ligand)” was tested. Which other did it give?
Answer: 35 pM

biological target: CCR5 (human (endogenous in PM1 cells and MDM)) (UniProt P51681); remark: another data set of the same source

Question: For “CCL5 5p12 5 m (E. coli) (from UniProt P13501 24-91) (ligand)”, which IC50 of inhibition of HIV-1BaL infection in human monocyte-derived macrophages (MDM); blocks HIV-1 entry through CCR5 is on record?
Answer: 14.2 pM

Question: And the IC50 of inhibition of the primary R5 HIV-1 strain 98IN007 (clade C), acute infection assay in PM1 cells; blocks HIV-1 entry through CCR5?
Answer: 7.6 pM

Question: What about the IC50 of inhibition of the primary R5 HIV-1 strain 5513 (clade B), acute infection assay in PM1 cells; blocks HIV-1 entry through CCR5 of the same substance?
Answer: 15.5 pM

biological target: human CCR5 on CHO-CD4-CCR5 cells (human) (UniProt P51681)

Question: How did the percent of surface CCR5 internalized, flow cytometry (mAb 3A9) of CHO-CD4-CCR5 cells treated with 100 nM ligand, 4 h, 37 °C turn out when “wt CCL5 (E. coli) (from UniProt P13501 24-91) (ligand)” was run?
Answer: 55%

Question: “CCL5 6p4 5 m (E. coli) (from UniProt P13501 24-91) (ligand)” was tested. Which percent of surface CCR5 internalized, flow cytometry (mAb 3A9) of CHO-CD4-CCR5 cells treated with 100 nM ligand, 4 h, 37 °C did it give?
Answer: 70%

biological target: CCR5 (human (endogenous in PM1 cells and MDM)) (UniProt P51681); remark: another data set of the same source

Question: “5p12 Y27W/F28W (from UniProt P13501 24-91) (ligand)” was tested. Which other did it give?
Answer: 8.2 pM

Question: Which other does the source give for “5p12 E66S (from UniProt P13501 24-91) (ligand)” here?
Answer: 18 pM

Question: Which other does the source give for “C1C5 Y27W (from UniProt P13501 24-91) (ligand)” here?
Answer: 3700 pM

Question: How did the other turn out when “CCL5 F12Y/A13V/Y27W/F28W/E66S (CCL5 5 m) (L. jensenii) (from UniProt P13501 24-91) (ligand)” was run?
Answer: 34 pM

Question: With “CCL5 A13V (from UniProt P13501 24-91) (ligand)” as the substance, how does the other read?
Answer: 86 pM

Question: For “CCL5 F12P (from UniProt P13501 24-91) (ligand)”, which other is on record?
Answer: > 1000 pM

Question: With “CCL5 A13W (from UniProt P13501 24-91) (ligand)” as the substance, how does the other read?
Answer: 169 pM

Question: How did the other turn out when “5p12 Y27W/F28W/E66S (from UniProt P13501 24-91) (ligand)” was run?
Answer: 7.7 pM

Question: “CCL5 Y27W/F28W/E66S (from UniProt P13501 24-91) (ligand)” was tested. Which other did it give?
Answer: 46 pM

Question: With “CCL5 A13P (from UniProt P13501 24-91) (ligand)” as the substance, how does the other read?
Answer: > 1000 pM

Question: How did the other turn out when “CCL5 F12Y/A13V/Y27W/F28W (CCL5 4 m) (from UniProt P13501 24-91) (ligand)” was run?
Answer: 115 pM

Question: With “6p4 F12Y/A13V/Y27W/F28W/E66S (CCL5 6p4 5 m) (L. jensenii) (from UniProt P13501 24-91) (ligand)” as the substance, how does the other read?
Answer: 4.7 pM

Question: Which other does the source give for “CCL5 F28W (from UniProt P13501 24-91) (ligand)” here?
Answer: 162 pM

Question: “6p4-RANTES (L. jensenii) (from UniProt P13501 24-91) (ligand)” was tested. Which other did it give?
Answer: 30 pM

Question: How did the other turn out when “5p12 F12Y/A13V/Y27W/F28W/E66S (CCL5 5p12 5 m) (L. jensenii) (from UniProt P13501 24-91) (ligand)” was run?
Answer: 5.5 pM

Question: For “C1C5 E66S (from UniProt P13501 24-91) (ligand)”, which other is on record?
Answer: 1600 pM

Question: “5p12 F12Y/A13V (from UniProt P13501 24-91) (ligand)” was tested. Which other did it give?
Answer: 30 pM

Question: How did the other turn out when “CCL5 A13M (from UniProt P13501 24-91) (ligand)” was run?
Answer: 256 pM

Question: How did the other turn out when “CCL5 E66S (from UniProt P13501 24-91) (ligand)” was run?
Answer: 190 pM

Question: For “C1C5 Y27W/F28W/E66S (from UniProt P13501 24-91) (ligand)”, which other is on record?
Answer: 640 pM

Question: Which other does the source give for “CCL5 Y27W/F28W (from UniProt P13501 24-91) (ligand)” here?
Answer: 95 pM

Question: For “CCL5 A13Y (from UniProt P13501 24-91) (ligand)”, which other is on record?
Answer: 78 pM

Question: How did the other turn out when “CCL5 A13F (from UniProt P13501 24-91) (ligand)” was run?
Answer: 92 pM

Question: “CCL5 Y27W (from UniProt P13501 24-91) (ligand)” was tested. Which other did it give?
Answer: 255 pM

Question: For “CCL5 F12Y/A13V (from UniProt P13501 24-91) (ligand)”, which other is on record?
Answer: 179 pM

Question: Which other does the source give for “5p12 Y27W (from UniProt P13501 24-91) (ligand)” here?
Answer: 17 pM

Question: “CCL5 F12W (from UniProt P13501 24-91) (ligand)” was tested. Which other did it give?
Answer: > 6500 pM

Question: With “C1C5 27W/28 W (from UniProt P13501 24-91) (ligand)” as the substance, how does the other read?
Answer: 833 pM
